# Laboratory results reported in US20210198647A1 (TEXAS TECH UNIVERSITY SYSTEM, published 2021).
# Ends that are not written are not given here.
# Experiments:
# Experiment in all cases: cell-based or functional assay
# [1] = target: Neurolysin (Nln) as used for the A50 and Amax values of Tables 2 and 5
# [2] = target: recombinant human thimet oligopeptidase (R & D systems, product number 3439-ZN) (human, UniProt P52888 1-689, limits assumed)
# [3] = target: recombinant human angiotensin converting enzyme (R & D systems, product number 929-ZN) (human, UniProt P12821 30-1261)
# Chain of recombinant human angiotensin converting enzyme (R & D systems, product number 929-ZN) (P12821 30-1261 limits assumed): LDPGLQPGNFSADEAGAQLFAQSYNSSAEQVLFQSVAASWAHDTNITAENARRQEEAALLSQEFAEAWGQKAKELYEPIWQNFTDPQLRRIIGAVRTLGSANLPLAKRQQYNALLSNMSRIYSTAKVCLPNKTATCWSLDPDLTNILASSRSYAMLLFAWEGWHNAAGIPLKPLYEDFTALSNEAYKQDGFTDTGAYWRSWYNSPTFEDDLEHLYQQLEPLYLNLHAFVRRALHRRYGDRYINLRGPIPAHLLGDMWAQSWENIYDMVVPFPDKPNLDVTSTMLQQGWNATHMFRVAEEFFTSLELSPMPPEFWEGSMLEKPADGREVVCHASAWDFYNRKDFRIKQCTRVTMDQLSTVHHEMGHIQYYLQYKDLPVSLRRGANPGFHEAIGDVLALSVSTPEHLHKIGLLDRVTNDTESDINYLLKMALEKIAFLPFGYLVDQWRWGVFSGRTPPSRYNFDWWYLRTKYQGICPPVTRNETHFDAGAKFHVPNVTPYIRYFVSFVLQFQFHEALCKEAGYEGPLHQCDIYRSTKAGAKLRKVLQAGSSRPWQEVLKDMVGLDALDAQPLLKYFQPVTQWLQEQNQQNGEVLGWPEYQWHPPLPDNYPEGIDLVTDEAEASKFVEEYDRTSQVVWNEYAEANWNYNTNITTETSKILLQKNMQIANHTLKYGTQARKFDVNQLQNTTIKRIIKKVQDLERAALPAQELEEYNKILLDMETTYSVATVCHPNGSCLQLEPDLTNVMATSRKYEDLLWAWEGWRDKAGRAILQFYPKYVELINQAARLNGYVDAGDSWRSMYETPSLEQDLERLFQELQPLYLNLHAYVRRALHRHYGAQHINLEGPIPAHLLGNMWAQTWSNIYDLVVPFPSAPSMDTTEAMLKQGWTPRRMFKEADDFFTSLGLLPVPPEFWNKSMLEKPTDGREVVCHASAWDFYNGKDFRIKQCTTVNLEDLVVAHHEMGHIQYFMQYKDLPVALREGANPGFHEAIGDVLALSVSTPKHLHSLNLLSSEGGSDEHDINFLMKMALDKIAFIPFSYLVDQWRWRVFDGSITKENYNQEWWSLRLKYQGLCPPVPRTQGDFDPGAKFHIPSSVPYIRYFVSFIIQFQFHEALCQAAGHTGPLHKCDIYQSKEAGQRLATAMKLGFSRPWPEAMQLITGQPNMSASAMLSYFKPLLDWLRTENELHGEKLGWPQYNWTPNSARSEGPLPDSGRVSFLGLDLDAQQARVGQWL
# [4] = target: recombinant human ACE2 (R & D systems, product number 933-ZN) (human, UniProt Q9BYF1 18-740)
# Chain of recombinant human ACE2 (R & D systems, product number 933-ZN) (Q9BYF1 18-740 limits assumed): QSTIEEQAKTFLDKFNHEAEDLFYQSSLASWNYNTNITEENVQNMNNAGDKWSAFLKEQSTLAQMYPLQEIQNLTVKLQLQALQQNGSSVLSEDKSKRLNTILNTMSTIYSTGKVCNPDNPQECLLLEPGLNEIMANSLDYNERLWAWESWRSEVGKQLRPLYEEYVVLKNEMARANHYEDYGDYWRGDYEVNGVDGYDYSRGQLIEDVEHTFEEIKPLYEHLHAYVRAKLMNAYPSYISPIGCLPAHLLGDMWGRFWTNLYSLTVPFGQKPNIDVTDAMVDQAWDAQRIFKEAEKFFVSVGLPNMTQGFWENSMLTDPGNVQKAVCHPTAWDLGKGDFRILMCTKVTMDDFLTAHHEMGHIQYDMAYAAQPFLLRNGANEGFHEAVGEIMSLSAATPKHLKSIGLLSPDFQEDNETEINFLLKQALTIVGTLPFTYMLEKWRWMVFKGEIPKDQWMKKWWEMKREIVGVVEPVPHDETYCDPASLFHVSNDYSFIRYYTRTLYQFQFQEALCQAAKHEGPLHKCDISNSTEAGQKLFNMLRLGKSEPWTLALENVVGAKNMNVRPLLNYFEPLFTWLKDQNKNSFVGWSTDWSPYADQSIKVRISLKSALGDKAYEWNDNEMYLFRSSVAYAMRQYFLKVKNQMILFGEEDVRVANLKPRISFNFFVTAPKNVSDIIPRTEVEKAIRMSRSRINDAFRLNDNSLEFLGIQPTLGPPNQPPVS
# [5] = target: recombinant human neprilysin (R & D systems, product number 1182-ZNC) (human, UniProt P08473 52-750)
# Chain of recombinant human neprilysin (R & D systems, product number 1182-ZNC) (P08473 52-750 limits assumed): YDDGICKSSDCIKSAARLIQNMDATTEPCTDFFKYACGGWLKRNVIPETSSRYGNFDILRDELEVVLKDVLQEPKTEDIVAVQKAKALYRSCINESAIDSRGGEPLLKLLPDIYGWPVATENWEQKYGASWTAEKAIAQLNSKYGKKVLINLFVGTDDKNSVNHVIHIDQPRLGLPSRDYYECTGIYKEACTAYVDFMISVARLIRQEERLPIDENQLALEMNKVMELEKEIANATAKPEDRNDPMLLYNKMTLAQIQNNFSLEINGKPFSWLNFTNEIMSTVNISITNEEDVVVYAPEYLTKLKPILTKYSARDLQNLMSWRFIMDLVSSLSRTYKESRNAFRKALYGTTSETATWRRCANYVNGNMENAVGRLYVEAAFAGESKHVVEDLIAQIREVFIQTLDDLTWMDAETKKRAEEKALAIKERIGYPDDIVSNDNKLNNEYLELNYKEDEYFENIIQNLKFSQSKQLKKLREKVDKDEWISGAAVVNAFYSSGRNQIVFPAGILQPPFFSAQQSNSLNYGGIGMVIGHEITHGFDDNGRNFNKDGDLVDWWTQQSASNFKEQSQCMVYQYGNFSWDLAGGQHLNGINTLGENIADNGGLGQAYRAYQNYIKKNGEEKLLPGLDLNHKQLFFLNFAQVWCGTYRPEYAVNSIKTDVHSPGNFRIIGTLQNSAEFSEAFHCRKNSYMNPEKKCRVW
# Chain of recombinant human thimet oligopeptidase (R & D systems, product number 3439-ZN) (P52888 whole entry): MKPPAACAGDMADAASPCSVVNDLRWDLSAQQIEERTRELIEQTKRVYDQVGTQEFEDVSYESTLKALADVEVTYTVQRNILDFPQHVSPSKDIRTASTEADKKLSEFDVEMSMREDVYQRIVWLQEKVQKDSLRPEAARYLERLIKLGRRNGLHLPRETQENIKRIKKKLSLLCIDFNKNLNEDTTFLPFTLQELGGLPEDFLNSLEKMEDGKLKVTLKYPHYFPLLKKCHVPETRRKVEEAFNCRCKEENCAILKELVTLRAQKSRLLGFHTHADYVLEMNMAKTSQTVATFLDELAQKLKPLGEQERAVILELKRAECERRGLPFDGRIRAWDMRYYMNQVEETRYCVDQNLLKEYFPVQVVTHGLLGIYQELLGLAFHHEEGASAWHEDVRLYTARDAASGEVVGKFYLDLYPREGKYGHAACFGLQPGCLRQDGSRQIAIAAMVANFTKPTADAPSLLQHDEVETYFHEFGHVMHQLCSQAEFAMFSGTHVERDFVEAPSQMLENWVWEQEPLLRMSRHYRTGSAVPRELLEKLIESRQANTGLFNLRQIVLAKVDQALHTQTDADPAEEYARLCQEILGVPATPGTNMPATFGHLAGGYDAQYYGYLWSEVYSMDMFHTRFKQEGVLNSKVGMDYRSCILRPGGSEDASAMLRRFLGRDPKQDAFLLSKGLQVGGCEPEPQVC
Binder,A50 [1] [µM],Amax [1] [%],inhibition of activity at 300 µM (quenched fluorescent substrate hydrolysis) [2] [%],inhibition of activity at 300 µM (quenched fluorescent substrate hydrolysis) [3] [%],inhibition of activity at 300 µM (quenched fluorescent substrate hydrolysis) [4] [%],inhibition of activity at 300 µM (quenched fluorescent substrate hydrolysis) [5] [%]
HF [His-Phe],130,573,–,–,–,–
"His-His (also: mixture of D- and L-His at both positions) [NlnA#2, NSC 523374, D,L-histidyl-D,L-histidine]",–,–,15.6,12.2,10.9,1.6
HP [His-Pro],–,502,–,–,–,–
"HY [NlnA#1, NSC 374121, L-histidyl-L-tyrosine]",–,467,25.9,22.6,13.4,2.9
HW [His-Trp],–,440,–,–,–,–
